This passage reports abundance fitness results from the Human Domainome abundance scans (Beltran et al. 2025).

B1: POU domain, class 5, transcription factor 1, residues 134 to 212; numbered along this chain, Q01860 (parent)
chain: EESQDIKALQKELEQFAKLLKQKRITLGYTQADVGLTLGVLFGKVFSQTTICRFEALQLSFKNMCKLRPLLQKWVEEAD

± gives the uncertainty stated by the source.

In the series the parent is B1. Briefly: abundance fitness (aPCA) (normalised: wild type 0, dead -1); higher = more abundant; growth selection in yeast, the domain comes from the species named. Conditions: Homo sapiens.
On to EESQDIKALQKELEQFAKLLKQKRITLGYTQADVGLTLGVLFGKVFSQTTICRFEALQLSFKNMCKLRPLLQTWVEEAD [K73T], for which the abundance fitness is -0.083 ± 0.12.

Turning to EESQDIKALQKELEQFAKLLKQKRITLGYTQADVGLTLGVLFGKVFSQTTICRFEALQLSFKNMCKLRPLLQPWVEEAD [K73P], the abundance fitness was -0.506 ± 0.21.

As for EESQDIKALQKELEQFAKLLKQKRITLGYTQADVGLTLGVLFGKVFSQTTICRFEALQLSFKNMCKLRPLLQMWVEEAD [K73M], the abundance fitness was -0.799 ± 0.28.

Consider EESQDIKALQKELEQFAKLLKQKRITLGYTQADVGLTLGVLFGKVFSQTTICRFEALQLSFKNMCKLRPLLQLWVEEAD [K73L], for which the abundance fitness is -0.289 ± 0.11.

Turning to EESQDIKALQKELEQFAKLLKQKRITLGYTQADVGLTLGVLFGKVFSQTTICRFEALQLSFKNMCKLRPLLQSWVEEAD [K73S], the abundance fitness was -0.659 ± 0.18.

For the variant EESQDIKALQKELEQFAKLLKQKRITLGYTQADVGLTLGVLFGKVFSQTTICRFEALQLSFKNMCKLRPLLQYWVEEAD [K73Y], the abundance fitness is -0.595 ± 0.37.

For EESQDIKALQKELEQFAKLLKQKRITLGYTQADVGLTLGVLFGKVFSQTTICRFEALQLSFKNMCKLRPLLQQWVEEAD [K73Q], the abundance fitness is -0.1 ± 0.14.

As to EESQDIKALQKELEQFAKLLKQKRITLGYTQADVGLTLGVLFGKVFSQTTICRFEALQLSFKNMCKLRPLLQWWVEEAD [K73W], the abundance fitness was -0.474 ± 0.14.

On to EESQDIKALQKELEQFAKLLKQKRITLGYTQADVGLTLGVLFGKVFSQTTICRFEALQLSFKNMCKLRPLLQKWHEEAD [V75H], for which the abundance fitness was -0.025 ± 0.36.

Consider EESQDIKALQKELEQFAKLLKQKRITLGYTQADVGLTLGVLFGKVFSQTTICRFEALQLSFKNMCKLRPLLQKWAEEAD [V75A], for which the abundance fitness was -0.815 ± 0.32.

Regarding EESQDIKALQKELEQFAKLLKQKRITLGYTQADVGLTLGVLFGKVFSQTTICRFEALQLSFKNMCKLRPLLQKWQEEAD [V75Q], the abundance fitness is -0.206 ± 0.34.

As to EESQDIKALQKELEQFAKLLKQKRITLGYTQADVGLTLGVLFGKVFSQTTICRFEALQLSFKNMCKLRPLLQKWWEEAD [V75W], the abundance fitness is -0.802 ± 0.39.

Consider EESQDIKALQKELEQFAKLLKQKRITLGYTQADVGLTLGVLFGKVFSQTTICRFEALQLSFKNMCKLRPLLQKWMEEAD [V75M], for which the abundance fitness was -0.293 ± 0.23.

In the case of EESQDIKALQKELEQFAKLLKQKRITLGYTQADVGLTLGVLFGKVFSQTTICRFEALQLSFKNMCKLRPLLQKWTEEAD [V75T], the abundance fitness is -0.299 ± 0.23.

As for EESQDIKALQKELEQFAKLLKQKRITLGYTQADVGLTLGVLFGKVFSQTTICRFEALQLSFKNMCKLRPLLQKWEEEAD [V75E], the abundance fitness is -0.353 ± 0.48.

EESQDIKALQKELEQFAKLLKQKRITLGYTQADVGLTLGVLFGKVFSQTTICRFEALQLSFKNMCKLRPLLQKWDEEAD [V75D]: the abundance fitness is -0.413 ± 0.3.

In the case of EESQDIKALQKELEQFAKLLKQKRITLGYTQADVGLTLGVLFGKVFSQTTICRFEALQLSFKNMCKLRPLLQKWREEAD [V75R], the abundance fitness was -0.661 ± 0.25.

For EESQDIKALQKELEQFAKLLKQKRITLGYTQADVGLTLGVLFGKVFSQTTICRFEALQLSFKNMCKLRPLLQKWGEEAD [V75G], the abundance fitness was -0.645 ± 0.29.

In the case of EESQDIKALQKELEQFAKLLKQKRITLGYTQADVGLTLGVLFGKVFSQTTICRFEALQLSFKNMCKLRPLLQKWCEEAD [V75C], the abundance fitness is -0.343 ± 0.26.

EESQDIKALQKELEQFAKLLKQKRITLGYTQADVGLTLGVLFGKVFSQTTICRFEALQLSFKNMCKLRPLLQKWPEEAD [V75P]: the abundance fitness was -0.203 ± 0.24.

Regarding EESQDIKALQKELEQFAKLLKQKRITLGYTQADVGLTLGVLFGKVFSQTTICRFEALQLSFKNMCKLRPLLQKWKEEAD [V75K], the abundance fitness was -0.056 ± 0.31.

With EESQDIKALQKELEQFAKLLKQKRITLGYTQADVGLTLGVLFGKVFSQTTICRFEALQLSFKNMCKLRPLLQKWIEEAD [V75I], the abundance fitness amounted to 0.056 ± 0.22.

With EESQDIKALQKELEQFAKLLKQKRITLGYTQADVGLTLGVLFGKVFSQTTICRFEALQLSFKNMCKLRPLLQKWSEEAD [V75S], the abundance fitness is -0.106 ± 0.24.

For EESQDIKALQKELEQFAKLLKQKRITLGYTQADVGLTLGVLFGKVFSQTTICRFEALQLSFKNMCKLRPLLQKWVGEAD [E76G], the abundance fitness is -0.644 ± 0.18.

Take EESQDIKALQKELEQFAKLLKQKRITLGYTQADVGLTLGVLFGKVFSQTTICRFEALQLSFKNMCKLRPLLQKWVHEAD [E76H]: the abundance fitness was -0.032 ± 0.32.

With EESQDIKALQKELEQFAKLLKQKRITLGYTQADVGLTLGVLFGKVFSQTTICRFEALQLSFKNMCKLRPLLQKWVKEAD [E76K], the abundance fitness is -0.133 ± 0.14.

For EESQDIKALQKELEQFAKLLKQKRITLGYTQADVGLTLGVLFGKVFSQTTICRFEALQLSFKNMCKLRPLLQKWVSEAD [E76S], the abundance fitness is -0.188 ± 0.15.

As to EESQDIKALQKELEQFAKLLKQKRITLGYTQADVGLTLGVLFGKVFSQTTICRFEALQLSFKNMCKLRPLLQKWVFEAD [E76F], the abundance fitness is -0.155 ± 0.27.

For the variant EESQDIKALQKELEQFAKLLKQKRITLGYTQADVGLTLGVLFGKVFSQTTICRFEALQLSFKNMCKLRPLLQKWVMEAD [E76M], the abundance fitness was -0.017 ± 0.22.

With EESQDIKALQKELEQFAKLLKQKRITLGYTQADVGLTLGVLFGKVFSQTTICRFEALQLSFKNMCKLRPLLQKWVCEAD [E76C], the abundance fitness was -0.066 ± 0.19.

For EESQDIKALQKELEQFAKLLKQKRITLGYTQADVGLTLGVLFGKVFSQTTICRFEALQLSFKNMCKLRPLLQKWVLEAD [E76L], the abundance fitness was -0.368 ± 0.15.

Turning to EESQDIKALQKELEQFAKLLKQKRITLGYTQADVGLTLGVLFGKVFSQTTICRFEALQLSFKNMCKLRPLLQKWVPEAD [E76P], the abundance fitness is -0.892 ± 0.39.

For the variant EESQDIKALQKELEQFAKLLKQKRITLGYTQADVGLTLGVLFGKVFSQTTICRFEALQLSFKNMCKLRPLLQKWVAEAD [E76A], the abundance fitness was -0.139 ± 0.13.

EESQDIKALQKELEQFAKLLKQKRITLGYTQADVGLTLGVLFGKVFSQTTICRFEALQLSFKNMCKLRPLLQKWVREAD [E76R]: the abundance fitness was -0.315 ± 0.095.
